EC50 data for 19 molecules are collected here from patent US20260152552A1 (CURON BIOPHARMACEUTICAL SHANGHAI, published 2026).

B1: humanized anti-L1CAM antibody hz49E10H1H7L6 (antibody, V domains shown)
VH: QVQLQESGPGLVKPSQTLSLTCTVSGGSISSDYAWNWIRQPPGKGLEWMGYITYSGTTTYNPSLKSRITISRDTSKNQFSLKLSSVTAADTAVYYCTLDHYGNYAYFDYWGQGTTVTVSS
VL: DIQMTQSPSSLSASVGDRVTITCRASSSVSFMHWYQQKPGKAPKPWIYASSNLVSGVPSRFSGSGSGTDFTLTISSLQPEDFATYYCQQWSSNPSTFGGGTKVEIK
B2: humanized anti-L1CAM antibody hz49E10H1H5L7 (antibody, V domains shown)
VH: DVQLQESGPGLVKPSQTLSLTCTVSGGSISSDYAWNWIRQPPGKGLEWMGYITYSGTTTYNPSLKSRITISRDTSKNQFSLKLSSVTAADTAVYYCARDHYGNYAYFDYWGQGTTVTVSS
VL: QIQMTQSPSSLSASVGDRVTITCRASSSVSFMHWYQQKPGKAPKPWIYASSNLVSGVPSRFSGSGSGTDYTLTISSLQPEDFATYYCQQWSSNPSTFGGGTKVEIK
B3: humanized anti-L1CAM antibody hz49E10H1H4L6 (antibody, V domains shown)
VH: QVQLQESGPGLVKPSQTLSLTCTVSGGSISSDYAWNWIRQPPGKGLEWIGYITYSGTTTYNPSLKSRVTISVDTSKNQFSLKLSSVTAADTAVYYCARDHYGNYAYFDYWGQGTTVTVSS
VL: DIQMTQSPSSLSASVGDRVTITCRASSSVSFMHWYQQKPGKAPKPWIYASSNLVSGVPSRFSGSGSGTDFTLTISSLQPEDFATYYCQQWSSNPSTFGGGTKVEIK
B4: humanized anti-L1CAM antibody hz49E10H1H6L7 (antibody, V domains shown)
VH: DVQLQESGPGLVKPSQTLSLTCTVSGGSISSDYAWNWIRQPPGKGLEWIGYITYSGTTTYNPSLKSRVTISRDTSKNQFSLKLSSVTAADTAVYYCTLDHYGNYAYFDYWGQGTTVTVSS
VL: QIQMTQSPSSLSASVGDRVTITCRASSSVSFMHWYQQKPGKAPKPWIYASSNLVSGVPSRFSGSGSGTDYTLTISSLQPEDFATYYCQQWSSNPSTFGGGTKVEIK
B5: humanized anti-L1CAM antibody hz49E10H1H6L6 (antibody, V domains shown)
VH: DVQLQESGPGLVKPSQTLSLTCTVSGGSISSDYAWNWIRQPPGKGLEWIGYITYSGTTTYNPSLKSRVTISRDTSKNQFSLKLSSVTAADTAVYYCTLDHYGNYAYFDYWGQGTTVTVSS
VL: DIQMTQSPSSLSASVGDRVTITCRASSSVSFMHWYQQKPGKAPKPWIYASSNLVSGVPSRFSGSGSGTDFTLTISSLQPEDFATYYCQQWSSNPSTFGGGTKVEIK
B6: humanized anti-L1CAM antibody hz49E10H1H4L7 (antibody, V domains shown)
VH: QVQLQESGPGLVKPSQTLSLTCTVSGGSISSDYAWNWIRQPPGKGLEWIGYITYSGTTTYNPSLKSRVTISVDTSKNQFSLKLSSVTAADTAVYYCARDHYGNYAYFDYWGQGTTVTVSS
VL: QIQMTQSPSSLSASVGDRVTITCRASSSVSFMHWYQQKPGKAPKPWIYASSNLVSGVPSRFSGSGSGTDYTLTISSLQPEDFATYYCQQWSSNPSTFGGGTKVEIK
B7: humanized anti-L1CAM antibody hz49E10H1H6L5 (antibody, V domains shown)
VH: DVQLQESGPGLVKPSQTLSLTCTVSGGSISSDYAWNWIRQPPGKGLEWIGYITYSGTTTYNPSLKSRVTISRDTSKNQFSLKLSSVTAADTAVYYCTLDHYGNYAYFDYWGQGTTVTVSS
VL: DIQMTQSPSSLSASVGDRVTITCRASSSVSFMHWYQQKPGKAPKLLIYASSNLVSGVPSRFSGSGSGTDFTLTISSLQPEDFATYYCQQWSSNPSTFGGGTKVEIK
B8: humanized anti-L1CAM antibody hz49E10H1H5L5 (antibody, V domains shown)
VH: DVQLQESGPGLVKPSQTLSLTCTVSGGSISSDYAWNWIRQPPGKGLEWMGYITYSGTTTYNPSLKSRITISRDTSKNQFSLKLSSVTAADTAVYYCARDHYGNYAYFDYWGQGTTVTVSS
VL: DIQMTQSPSSLSASVGDRVTITCRASSSVSFMHWYQQKPGKAPKLLIYASSNLVSGVPSRFSGSGSGTDFTLTISSLQPEDFATYYCQQWSSNPSTFGGGTKVEIK
B9: humanized anti-L1CAM antibody hz49E10H1H5L6 (antibody, V domains shown)
VH: DVQLQESGPGLVKPSQTLSLTCTVSGGSISSDYAWNWIRQPPGKGLEWMGYITYSGTTTYNPSLKSRITISRDTSKNQFSLKLSSVTAADTAVYYCARDHYGNYAYFDYWGQGTTVTVSS
VL: DIQMTQSPSSLSASVGDRVTITCRASSSVSFMHWYQQKPGKAPKPWIYASSNLVSGVPSRFSGSGSGTDFTLTISSLQPEDFATYYCQQWSSNPSTFGGGTKVEIK
B10: humanized anti-L1CAM antibody hz49E10H1H4L5 (antibody, V domains shown)
VH: QVQLQESGPGLVKPSQTLSLTCTVSGGSISSDYAWNWIRQPPGKGLEWIGYITYSGTTTYNPSLKSRVTISVDTSKNQFSLKLSSVTAADTAVYYCARDHYGNYAYFDYWGQGTTVTVSS
VL: DIQMTQSPSSLSASVGDRVTITCRASSSVSFMHWYQQKPGKAPKLLIYASSNLVSGVPSRFSGSGSGTDFTLTISSLQPEDFATYYCQQWSSNPSTFGGGTKVEIK
B11: humanized anti-L1CAM antibody hz26A12C1H3L2 (antibody, V domains shown)
VH: QVQLVQSGAEVKKPGSSVKVSCKASGYTFTNYWIQWVRQAPGQGLEWIGYINPSTYYSDYAQKFQGRVTLTADESTSTAYMELSSLRSEDTAVYYCARRQFGLPLFDYWGQGTTVTVSS
VL: DIQMTQSPSSLSASVGDRVTITCRASQDVGTAVAWYQQKPGKVPKLLIYWASTLHSGVPSRFSGSGSGTDFTLTISSLQPEDVATYYCQQYSNYPLTFGGGTKVEIK
B12: humanized anti-L1CAM antibody hz26A12C1H3L3 (antibody, V domains shown)
VH: QVQLVQSGAEVKKPGSSVKVSCKASGYTFTNYWIQWVRQAPGQGLEWIGYINPSTYYSDYAQKFQGRVTLTADESTSTAYMELSSLRSEDTAVYYCARRQFGLPLFDYWGQGTTVTVSS
VL: DIQMTQSPSSLSASVGDRVTITCRASQDVGTAVAWYQQKPGKVPKLLIYWASTLHSGVPSRFSGSGSGTDFTLTISSLQPEDVATYFCQQYSNYPLTFGGGTKVEIK
B13: humanized anti-L1CAM antibody hz26A12C1H4L3 (antibody, V domains shown)
VH: QVQLVQSGAEVKKPGSSVKVSCKASGYTFTNYWIQWVRQAPGQGLEWIGYINPSTYYSDYNQKFQGRVTLTADKSTSTAYMELSSLRSEDTAVYYCARRQFGLPLFDYWGQGTTVTVSS
VL: DIQMTQSPSSLSASVGDRVTITCRASQDVGTAVAWYQQKPGKVPKLLIYWASTLHSGVPSRFSGSGSGTDFTLTISSLQPEDVATYFCQQYSNYPLTFGGGTKVEIK
B14: humanized anti-L1CAM antibody hz26A12C1H2L2 (antibody, V domains shown)
VH: QVQLVQSGAEVKKPGSSVKVSCKASGYTFTNYWIQWVRQAPGQGLEWMGYINPSTYYSDYAQKFQGRVTITADESTSTAYMELSSLRSEDTAVYYCARRQFGLPLFDYWGQGTTVTVSS
VL: DIQMTQSPSSLSASVGDRVTITCRASQDVGTAVAWYQQKPGKVPKLLIYWASTLHSGVPSRFSGSGSGTDFTLTISSLQPEDVATYYCQQYSNYPLTFGGGTKVEIK
B15: humanized anti-L1CAM antibody hz26A12C1H4L1 (antibody, V domains shown)
VH: QVQLVQSGAEVKKPGSSVKVSCKASGYTFTNYWIQWVRQAPGQGLEWIGYINPSTYYSDYNQKFQGRVTLTADKSTSTAYMELSSLRSEDTAVYYCARRQFGLPLFDYWGQGTTVTVSS
VL: DIQMTQSPSSLSASVGDRVTITCRASQDVGTALAWYQQKPGKVPKLLIYWASTLQSGVPSRFSGSGSGTDFTLTISSLQPEDVATYYCQQYSNYPLTFGGGTKVEIK
B16: humanized anti-L1CAM antibody hz26A12C1H4L2 (antibody, V domains shown)
VH: QVQLVQSGAEVKKPGSSVKVSCKASGYTFTNYWIQWVRQAPGQGLEWIGYINPSTYYSDYNQKFQGRVTLTADKSTSTAYMELSSLRSEDTAVYYCARRQFGLPLFDYWGQGTTVTVSS
VL: DIQMTQSPSSLSASVGDRVTITCRASQDVGTAVAWYQQKPGKVPKLLIYWASTLHSGVPSRFSGSGSGTDFTLTISSLQPEDVATYYCQQYSNYPLTFGGGTKVEIK
B17: humanized anti-L1CAM antibody hz26A12C1H2L3 (antibody, V domains shown)
VH: QVQLVQSGAEVKKPGSSVKVSCKASGYTFTNYWIQWVRQAPGQGLEWMGYINPSTYYSDYAQKFQGRVTITADESTSTAYMELSSLRSEDTAVYYCARRQFGLPLFDYWGQGTTVTVSS
VL: DIQMTQSPSSLSASVGDRVTITCRASQDVGTAVAWYQQKPGKVPKLLIYWASTLHSGVPSRFSGSGSGTDFTLTISSLQPEDVATYFCQQYSNYPLTFGGGTKVEIK
B18: humanized anti-L1CAM antibody hz26A12C1H2L1 (antibody, V domains shown)
VH: QVQLVQSGAEVKKPGSSVKVSCKASGYTFTNYWIQWVRQAPGQGLEWMGYINPSTYYSDYAQKFQGRVTITADESTSTAYMELSSLRSEDTAVYYCARRQFGLPLFDYWGQGTTVTVSS
VL: DIQMTQSPSSLSASVGDRVTITCRASQDVGTALAWYQQKPGKVPKLLIYWASTLQSGVPSRFSGSGSGTDFTLTISSLQPEDVATYYCQQYSNYPLTFGGGTKVEIK
B19: humanized anti-L1CAM antibody hz26A12C1H3L1 (antibody, V domains shown)
VH: QVQLVQSGAEVKKPGSSVKVSCKASGYTFTNYWIQWVRQAPGQGLEWIGYINPSTYYSDYAQKFQGRVTLTADESTSTAYMELSSLRSEDTAVYYCARRQFGLPLFDYWGQGTTVTVSS
VL: DIQMTQSPSSLSASVGDRVTITCRASQDVGTALAWYQQKPGKVPKLLIYWASTLQSGVPSRFSGSGSGTDFTLTISSLQPEDVATYYCQQYSNYPLTFGGGTKVEIK

The target in the assay is T1, human L1CAM (L1 cell adhesion molecule), endogenously expressed on the surface of HeLa cells (human, UniProt P32004 20-1257).
T1 construct: whole, on cells; also called CD171
T1 sequence (P32004 20-1257): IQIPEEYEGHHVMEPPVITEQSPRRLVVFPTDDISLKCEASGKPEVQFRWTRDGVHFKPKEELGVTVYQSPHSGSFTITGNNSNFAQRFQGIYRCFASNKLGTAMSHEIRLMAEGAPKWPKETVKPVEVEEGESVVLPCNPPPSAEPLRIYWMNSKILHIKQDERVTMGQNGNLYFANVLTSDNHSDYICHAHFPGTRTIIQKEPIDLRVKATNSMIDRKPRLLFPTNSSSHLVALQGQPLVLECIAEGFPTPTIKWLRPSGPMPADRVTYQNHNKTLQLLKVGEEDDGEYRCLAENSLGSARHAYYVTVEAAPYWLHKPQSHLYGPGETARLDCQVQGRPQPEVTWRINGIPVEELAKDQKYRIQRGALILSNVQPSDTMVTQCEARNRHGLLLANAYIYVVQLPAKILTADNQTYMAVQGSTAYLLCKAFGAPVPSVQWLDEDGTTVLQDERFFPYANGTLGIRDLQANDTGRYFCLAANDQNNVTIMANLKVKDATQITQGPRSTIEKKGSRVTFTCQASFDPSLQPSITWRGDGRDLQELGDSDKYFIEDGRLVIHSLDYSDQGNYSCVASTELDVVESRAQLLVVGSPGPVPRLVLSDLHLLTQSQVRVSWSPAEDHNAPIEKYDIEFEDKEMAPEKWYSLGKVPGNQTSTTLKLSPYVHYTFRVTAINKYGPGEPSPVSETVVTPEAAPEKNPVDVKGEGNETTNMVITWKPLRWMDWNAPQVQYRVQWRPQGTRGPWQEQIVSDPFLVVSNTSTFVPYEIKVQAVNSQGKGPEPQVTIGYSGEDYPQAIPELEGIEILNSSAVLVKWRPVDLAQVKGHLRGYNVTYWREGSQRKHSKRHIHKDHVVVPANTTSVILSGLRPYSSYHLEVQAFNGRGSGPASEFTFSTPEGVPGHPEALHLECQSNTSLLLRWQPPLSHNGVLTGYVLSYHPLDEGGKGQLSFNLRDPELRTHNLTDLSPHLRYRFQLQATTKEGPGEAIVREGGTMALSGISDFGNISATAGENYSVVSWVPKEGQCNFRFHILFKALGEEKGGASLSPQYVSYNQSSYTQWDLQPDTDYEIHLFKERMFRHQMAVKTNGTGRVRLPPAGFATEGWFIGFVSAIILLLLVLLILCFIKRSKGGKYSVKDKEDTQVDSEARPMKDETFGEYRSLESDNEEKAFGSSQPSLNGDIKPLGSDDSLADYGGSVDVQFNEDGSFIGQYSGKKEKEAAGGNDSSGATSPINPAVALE
The assay can be described thus: flow cytometry on HeLa cells (endogenous human L1CAM). The procedure: The experimental principle is as follows: HeLa cells express high levels of L1CAM protein on their surface. After incubating humanized L1CAM antibodies with the cells, the binding ability of the antibodies to L1CAM on the surface of HeLa cells can be determined by flow cytometry. The experimental method is descripted as following: Humanized L1CAM antibodies (Human IgG1-Kappa) are diluted in complete medium in a four-fold serial dilution, with seven concentration gradient points. HeLa cells are cultured in DMEM complete medium (Corning, 10-013-CVR) containing 10% FBS (Gibco, 10099-141) and 100 U/mL penicillin mixture (Thermofisher, 15140122). When the cell coverage in the culture container reaches 80-90%, TrypLE (Thermofisher, 12604-013) is used to digest the HeLa cells from the culture container, and they are seeded in a 96-well plate (AXYGEN, P-96-450V-C) at a density of 2.2×10⁶ cells/ml, with 100,000 cells (45 μL complete medium) per well. Then, 5 μL of the antibody dilution is added to each well, gently mixed, and the 96-well plate is incubated at 4° C. for 1 hour. Then, 150 μL of PBS solution containing 2% FBS (Corning, 21-040-CVC) is added to each well, centrifuged at 1400 rpm for 4 minutes, the supernatant is removed, and the wells are washed once more. Then, 50 μL of Alexa Flour 647-labeled goat anti-human fluorescent secondary antibody (Jacksonimmuno, 109-605-088) diluted 1:800 is added to each well, and the 96-well plate is incubated at 4° C. for 0.5 hours. The cells are washed twice with PBS solution containing 2% FBS, then resuspended in 120 μL of PBS, and the cell surface fluorescence signal is detected using a flow cytometer (BD FACS Celesta), obtaining the median fluorescence intensity (MFI). A dose-response curve is generated, and the half-maximal effective concentration (EC50) is calculated using non-linear regression with GraphPad software.
For the molecule B1, a half-maximal effect (EC50) was put at 1050 pM.
The same measure for B2: 377 pM; for B3: 853 pM.
The same measure for B4: 996 pM; for B5: 1030 pM; for B6: 676 pM.
In the case of B7 it was 24300 pM.
With B8, the concentration giving a half-maximal response (EC50) worked out at 633 pM.
The same measure for B9: 404 pM.
In the case of B10 it was 2150 pM; in that of B11, 2330 pM; in that of B12, 838 pM.
In the case of B13 it was 738 pM; in that of B14, 7820 pM.
Take B15: the EC50 is 646 pM.
In the case of B16 it was 562 pM; in that of B17, 853 pM; in that of B18, 24700 pM.
As to B19, the 50% effective concentration (EC50) is 2990 pM.
